Data taken from US20130216545A1, “Early Diagnosis and Novel Treatment of Cancer” (priority 2012, published 2013).

Tests used:
Megi [1] = target: T1, Megi (Homo sapiens, UniProt O43909); experiment: Western blot analysis of Megi in cytosolic and nuclear fractions of adenocarcinoma cells; assay type: cell-based; settings: Reg peptide 167 nM; 30 minutes; vs cells not treated with Reg peptide; FIG. 7g vs 7e
T1 construct: Megi protein is expressed in human pancreatic cancer cells; endogenous in cells
T1 sequence (O43909 1-919): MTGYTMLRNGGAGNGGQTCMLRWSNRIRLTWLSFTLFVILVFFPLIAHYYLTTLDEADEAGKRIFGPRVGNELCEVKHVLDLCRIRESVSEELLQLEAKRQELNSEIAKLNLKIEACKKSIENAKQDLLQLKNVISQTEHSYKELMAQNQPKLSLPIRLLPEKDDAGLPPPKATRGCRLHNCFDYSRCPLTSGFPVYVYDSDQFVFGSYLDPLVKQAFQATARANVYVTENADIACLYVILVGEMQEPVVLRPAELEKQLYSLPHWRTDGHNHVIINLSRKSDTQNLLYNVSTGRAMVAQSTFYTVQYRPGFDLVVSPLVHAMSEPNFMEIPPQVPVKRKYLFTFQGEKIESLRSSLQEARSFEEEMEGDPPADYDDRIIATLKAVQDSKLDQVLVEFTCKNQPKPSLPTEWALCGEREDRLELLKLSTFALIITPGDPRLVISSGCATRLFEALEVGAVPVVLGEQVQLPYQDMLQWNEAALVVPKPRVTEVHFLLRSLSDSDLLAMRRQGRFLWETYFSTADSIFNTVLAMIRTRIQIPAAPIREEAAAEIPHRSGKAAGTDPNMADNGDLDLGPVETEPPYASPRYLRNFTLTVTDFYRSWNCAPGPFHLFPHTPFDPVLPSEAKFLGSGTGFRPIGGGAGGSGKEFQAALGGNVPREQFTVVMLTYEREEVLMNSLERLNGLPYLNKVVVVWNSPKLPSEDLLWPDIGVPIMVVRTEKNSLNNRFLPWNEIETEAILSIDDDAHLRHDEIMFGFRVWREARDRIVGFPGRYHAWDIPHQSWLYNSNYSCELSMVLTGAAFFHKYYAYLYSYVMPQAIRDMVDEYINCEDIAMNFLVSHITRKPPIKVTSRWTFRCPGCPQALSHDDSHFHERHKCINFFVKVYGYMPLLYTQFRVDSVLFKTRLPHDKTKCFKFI
Description: The Western blot analysis of cytosolic and nuclear fractions isolated at the indicated time points with Reg peptide accelerating time of Megi translocation from the cell surface membrane to nucleus. Adenocarcinoma cells were seeded in T75 flasks in Dulbecco's Modified Eagle media containing 10% fetal bovine serum. The cells were incubated at […], 5% CO2 for 24 hours and then treated with Reg peptide at the final concentration of 167 nM. This treatment was performed once a day for four days. On the fifth day the cells were broken to obtain the cell lysates. In these cell extracts the total protein levels were determined, and 50 micrograms of total protein, were used to perform the western blot analysis. The samples containing 50 micrograms of proteins were diluted in loading buffer and loaded into each well of the gel. For gels run under reducing conditions, buffer also contained 5% of the reducing agent beta-mercaptoethanol
Analyses were performed from cytoplasmic extracts were obtained in 10 mM HEPES (pH 8.0), 1 mM EDTA, 1.5 mM MgCl2, 10 mM KCl, 0.5 mM DTT, 200 mM sucrose and 0.5% Nonidet P-40. Nuclear extracts were obtained in 20 mM HEPES (pH 7.9), 0.75 mM MgCl2, 210 mM NaCl, 50 mM KCl, 1 mM EDTA, 10% glycerol, and 0.5 mM of dithiothreitol. […] Secondary signals were developed with chemiluminescence substrate and analyzed by autoradiography.

Megi [2] = target: T1, Megi; experiment: Cy3 immunofluorescent staining of Megi in human pancreatic adenocarcinoma cells; assay type: cell-based; settings: 167 nM Reg peptide added to human pancreatic adenocarcinoma cells; FIG. 6b vs 6a
Description: To determine the presence of Megi via immunofluorescence, a continuous tumor-cell line from a human carcinoma of the exocrine pancreas were cultured in Dulbecco's Modified Eagle Medium containing 4.5 g/L glucose, 1:5 g/L sodium bicarbonate, 4 mM L-glutamine, and 10% fetal bovine serum. Cells were seeded at 50% confluence in standard growth medium. Twenty-four hours after seeding, cells were differentiated in serum free medium. Cells were mounted on cover slips and fixed in 4% paraformaldehyde and permeabilized with 0:2% Triton X-100. After being washed and blocked, cells were incubated with rabbit polyclonal anti-Megi antibody and a CY3-conjugated goat-anti-rabbit labeled fluorescent antibody. Antibodies were used at a 1:200 dilution. Coverslips were mounted and staining was analyzed on a Zeiss Axiovert 220M microscope powered by Axiovision 4.0 software with Z-stack acquisition, 3D-deconvolution, and 4D rendering modules.
Utilizing Cy3 immunofluorescent staining of Megi in human pancreatic adenocarcinoma cells in standard medium, there is immunofluorescent staining of Megi (FIG. 6a), which is well-defined at the cell borders indicating surface expression of Megi on the plasma membrane with visibly undetectable levels of Megi in the nucleus. […]

Megi [3] = target: T1, Megi; experiment: Immunofluorescent nuclear analyses of Megi translocation (Cy3 with DAPI overlay); assay type: cell-based; settings: cells grown in serum-free medium with 150 μM Reg peptide; FIG. 8c, 8f
Text: Immunofluorescent analyses of Megi are shown in the upper panels (FIG. 8a, FIG. 8b and FIG. 8c) indicated by the Cy3 immunofluorescent staining of Megi. […] The arrows in FIG. 8a and FIG. 8d delineate the cell borders, whereas the nuclei are shown in light grey contrast in FIG. 8d.
The middle images (FIG. 8b and FIG. 8e) are cells grown in SFM. Megi is localized in the cytoplasm, as indicated by cytoplasmic Cy3 staining. The arrows in FIG. 8b and FIG. 8e show the lack of staining in the position of the nuclei. […] In the lower image (FIG. 80, there is an overlap of Megi-Cy3 staining and nuclear DAPI staining that corroborates that there is nuclear localization of Megi indicated by the arrows in FIG. 8f. In the lower image (FIG. 8f) of cells grown in SFM and Reg peptide, the arrows indicate the position of the nuclei, which now stains for Megi. Scale bar=20 μm in all images.
Immunofluorescent analyses are shown in the upper, panels (FIG. 8a, FIG. 8b and FIG. 8c) indicated by the Cy3 immunofluorescent staining of Megi. […]

rabbits = experiment: Enzyme ImmunoAssay titers of polyclonal antibodies raised in rabbits to a Megi peptide; assay type: in vivo, rabbit; settings: for 50% titer: test bleed 31 days after day 0 and day 21 boosts, KLH-conjugated peptide, unconjugated screening antigen
Description: Data sets were taken from the bleed after the day 0 and day 21 boosts. The animals were injected with a peptide of SEQ ID NO: 4 and were conjugated to keyhole limpet hemocyanin (KLH). The screening antigen is not conjugated to KLH so that the response solely to the peptide and not to KLH can be identified. The 50% titer is a dilution value where the signal is half-way between the peak and the baseline, so the higher the dilution value (titer), the greater the response to the antigen. The positive control is an internal control that was generated from ovalbumin antibodies in rabbit. At a dilution of 1:759,000, the absorbance fell within a range of 0.45 to 0.9. In the case of the response to SEQ ID NO: 4, there was a high response. The data shown in FIG. 9 from the prebleed sample obtained on Dec. 8, 2010 was <100 (negative) for both rabbits, CD 153 and CD 154.

Megi receptor = settings: rat hippocampus; effect abolished by downregulating Megi by shRNA; cited from earlier work

Reg peptide: common Reg peptide sequence (SEQ ID NO: 10) selected from Reg1α, Reg1β, Reg3α and RegIV, synthesized by Bachem (IGLHDPTQGTEPNG)
nuclear levels of Megi (Megi nuclear translocation) (Megi [1]): higher nuclear levels of Megi
cellular staining of Megi (Megi [2]): greater expression of Megi inside of the cell
subcellular localization of Megi (Megi [3]): translocation of Megi into the nucleus

SEQ ID NO: 4: 20 amino acid Megi peptide (amino acids 17-36) used as immunogen to raise polyclonal antibodies in rabbits (CKKSIENAKQDLLQLKNVIS)
50% titer (rabbits; rabbit CD 153): 36,000
50% titer (rabbits; rabbit CD 154): 125,000
response to the antigen (rabbits; rabbits immunised with KLH-conjugated peptide): high response

B1: recombinant Reg1α: recombinant regenerating islet-derived 1 alpha protein used by Van Ba on rat hippocampus (protein)
chain: QEAQTELPQARISCPEGTNAYRSYCYYFNEDRETWVDADLYCQNMNSGNLVSVLTQAEGAFVASLIKESGTDDFNVWIGLHDPKKNRRWHWSSGSLVSYKSWGIGAPSSVNPGYCVSLTSSTGFQKWKDVPCEDKFSFVCKFKN
neurite outgrowth (Megi receptor): increased neurite outgrowth
